Values of other authors in article PMC4388261.

Biological target: Glu35 (UniProt position 53, CAAKFESNFNT)
Settings: not stated (wild-type HEWL; the literature range pools several studies)

Substance: Hen egg-white lysozyme (HEWL, lysozyme C) (Gallus gallus)
- pKa: 6.0–6.8
